The values below come from US7993648.

The target in this assay is CD70 (UniProt O55237). Description: cell-based or functional assay.
UniProt O55237, sequence (O55237 whole entry): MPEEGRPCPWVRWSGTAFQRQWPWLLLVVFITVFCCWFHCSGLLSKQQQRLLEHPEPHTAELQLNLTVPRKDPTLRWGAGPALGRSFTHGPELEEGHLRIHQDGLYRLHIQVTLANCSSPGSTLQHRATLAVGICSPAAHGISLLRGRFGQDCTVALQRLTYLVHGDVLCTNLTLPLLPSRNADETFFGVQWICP

In turn, anti-CD70 blocking antibody FR70 registered a CD8+ T cell response (tetramer staining of day 7 PBLs) in CD4-depleted IFNαβR KO mice of 10 fold.
